Results on two molecules are retold here after patent US20260124314A1, “ANTl-5T4 ANTIGEN BINDING DOMAINS, ANTIBODY-DRUG CONJUGATES AND METHODS OF USE THEREOF” (Salubris Biotherapeutics, Inc., priority 2023, published 2026).

As usually defined, the Kd is the concentration at which binding is half-saturated. By koff is commonly meant the first-order rate constant of dissociation. One may read the kon as the second-order rate constant of association.

In experiment [1] the target is T1, recombinant human 5T4 protein (human, UniProt Q13641 32-355).
T1 construct: The ELISA protein was bought (Sino biologics and Biorbyt); also called recombinant 5T4 protein; trophoblast glycoprotein (TPBG)
T1 sequence: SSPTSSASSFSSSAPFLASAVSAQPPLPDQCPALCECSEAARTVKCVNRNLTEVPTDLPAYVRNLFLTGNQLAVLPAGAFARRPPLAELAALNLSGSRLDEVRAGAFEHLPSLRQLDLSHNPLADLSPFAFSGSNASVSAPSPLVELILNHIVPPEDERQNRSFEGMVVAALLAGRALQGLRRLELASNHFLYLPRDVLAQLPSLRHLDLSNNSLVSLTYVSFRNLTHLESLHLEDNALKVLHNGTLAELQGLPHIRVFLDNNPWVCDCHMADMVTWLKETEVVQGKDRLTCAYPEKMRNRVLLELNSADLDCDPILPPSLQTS
Put plainly: SPR (Biacore 8K, optimized assay): antibody captured on a protein A chip, recombinant 5T4 injected at 0.02-5 µg/mL, one-to-one binding model. How it is done: SPR kinetic experiments were performed on Biacore 8K systems (GE healthcare) with HBS-EP+ as running buffer. […] Capture level for each antibody was maintained between 50-100 RU. The final analyte binding level at the highest concentration was maintained below 50 RU. […] After each binding cycle, the sensor chip was regenerated with glycine solution (pH 1.5). The resulting sensorgrams were fitted with a one-to-one binding model to extract kinetic constants using Biacore 8K Evaluation Software.
(In general: SPR reads the build-up and loss of mass on a sensor chip optically.)

The target of experiment [2] is T1, recombinant human 5T4 protein. Put plainly: SPR (Biacore 8K): antibody captured on a protein A chip, 5T4 protein injected at 0.625-10 nM, 1:1 binding model. How it is done:
(§1) The binding affinity of anti-5T4 bispecific antibody-drug conjugate monospecific and bispecific antibodies to 5T4 was measured by Biacore kinetic experiments using a Protein A sensor chip on Biacore 8K (Cytiva) with HBS-EP+ as running buffer. […] After each binding cycle, the sensor chip was regenerated with glycine solution, pH 1.5. Signals from reference surface and an ensemble of buffer blank injections were subtracted from binding signals to correct for nonspecific binding and injection artifacts. The corrected experimental signals were globally fitted to a 1:1 binding model to extract kinetic constants, including association rate constant (ka), dissociation rate constant (kd), and equilibrium dissociation constant (KD), using the Biacore 8K Evaluation Software.

Experiment [3] has the same target. Put plainly: SPR (Biacore 8K), antibody captured on Protein A chip, 5T4 as analyte 0.625-10 nM, 1:1 model. How it is done:
as §1

B1: Bs3-HL biparatopic anti-5T4 antibody conjugated to MMAE (Example 4) (bispecific antibody, human IgG1, kappa)
heavy: QVQLVQSGAEVKKPGASVKVSCKASGYSFTDYYMHWVRQAPGQGLEWMGRVSPNNGATNTNQKFKDRVTMTRDTSISTAYMELRSLRSEDTAVYYCARSTMITSYYFDYWGQGTLVTVSSASTKGPSVFPLAPSSKSTSGGTAALGCLVKDYFPEPVTVSWNSGALTSGVHTFPAVLQSSGLYSLSSVVTVPSSSLGTQTYICNVNHKPSNTKVDKRVEPKSCDKTHTCPPCPAPEFLGGPCVFLFPPKPKDTLMISRTPEVTCVVVDVSHEDPEVKFNWYVDGVEVHNAKTKPREEQYNSTYRVVSVLTVLHQDWLNGKEYKCKVSNKALPAPIEKTISKAKGQPREPQVYTLPPSREEMTKNQVSLTCLVKGFYPSDIAVEWESNGQPENNYKTTPPVLDSDGSFFLYSKLTVDKSRWQQGNVFSCSVMHEALHAHYTQKSLSLSPGKGGGGSGGGGSGGGGSEVQLLESGGGLVQPGGSLRLSCAASGFDFSRYWMTWVRQAPGKCLEWVSEINPDSRTINYTPSLKDRFTISRDNAKNTLYLQMNSLRAEDTAVYYCARPDHDYNPYYFNYWGQGTTVTVSSGGGGSGGGGSGGGGSGGGGSDIVLTQSPASLAVSLGQRATISCRPSQSVSTSSNSYIHWYQQKPGQPPKLLIKYASNLESGVPARFSGSGSGTDFTLTISPVEAEDTATYYCQQSWEIPLTFGCGTKLEIK
light: DIVMTQSPSFLSVSVGDRVTITCKASQSVSTDVAWYQQKPGQAPKLLIYFASDRYTGVPDRFSGSGSGTDFTFTISSLQAEDVAVYYCQQDYSSPPTFGGGTKLEIKRTVAAPSVFIFPPSDEQLKSGTASVVCLLNNFYPREAKVQWKVDNALQSGNSQESVTEQDSKDSTYSLSSTLTLSKADYEKHKVYACEVTHQGLSSPVTKSFNRGEC
modifications: monomethyl auristatin E (MMAE) conjugated; attachment residues, chain and drug-to-antibody ratio not stated for this experiment
notes: Antibody-drug conjugate of Bs3-HL; also called bispecific antibody in the Bs3-HL orientation conjugated to MMAE; bispecific antibody with conjugated MMAE
Consider B1, for which, in experiment [1], the Kd is 0.0159 nM, the dissociation rate constant (koff) turned out to be 5.99e-06 s⁻¹ and the kon was 376000 M⁻¹ s⁻¹.

B2: humanized antibody No. 2 ((h)Ab2) (antibody, V domains shown)
VH: EVQLLESGGGLVQPGGSLRLSCAASGFDFSRYWMTWVRQAPGKGLEWVSEINPDSRTINYTPSLKDRFTISRDNAKNTLYLQMNSLRAEDTAVYYCARPDHDYNPYYFNYWGQGTTVTVSS
VL: DIVLTQSPASLAVSLGQRATISCRPSQSVSTSSNSYIHWYQQKPGQPPKLLIKYASNLESGVPARFSGSGSGTDFTLTISPVEAEDTATYYCQQSWEIPLTFGGGTKLEIK
notes: also called humanized Ab2; humanized monospecific antibody Ab2
B2: in experiment [2], the koff is 0.000283 s⁻¹ and the kon came to 884000 M⁻¹ s⁻¹. For the same molecule, in experiment [3], the Kd came out at 0.32 nM.
